Results published in US20230340151A1 (Pfizer, published 2023).

Legend:
Assay in all cases: peptide DELFIA ELISA;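 also: epitope mapping using overlapping 20-mer GUCY2C peptides covering residues 1-440, extracellular into transmembrane domain, coated at 20 µg/ml as target antigen and probed with antibodies or GUCY2C-CD3 bispecifics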
[1] = target: T1, GUCY2C_ECD Peptide 85 (human)
T1 peptide: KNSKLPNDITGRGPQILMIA
Experimental: (§1) Arrays were reconstituted with acetonitrile to 100 μg/ml and were then further diluted to 20 μg/ml with sodium carbonate/bicarbonate buffer. Purified antibodies or GUCY2c-CD3 bispecifics were then tested by Delfia ELISA for binding to the different peptides using Delfia ELISA methods previously discussed, with diluted peptides used as the target antigen.

[2] = target: T2, GUCY2C_ECD Peptide 54 (human)
T2 peptide: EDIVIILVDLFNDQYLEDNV
Experimental: as §1

[3] = target: T3, GUCY2C_ECD Peptide 46 (human)
T3 peptide: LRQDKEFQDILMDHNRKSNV
Experimental: as §1

[4] = target: T4, GUCY2C_ECD Peptide 35 (human)
T4 peptide: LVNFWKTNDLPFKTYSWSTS
Experimental: as §1

[5] = target: T5, GUCY2C_ECD Peptide 65 (human)
T5 peptide: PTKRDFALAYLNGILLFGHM
Experimental: as §1

[6] = target: T6, GUCY2C_ECD Peptide 5 (human)
T6 peptide: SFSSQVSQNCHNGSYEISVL
Experimental: as §1

[7] = target: T7, GUCY2C_ECD Peptide 29 (human)
T7 peptide: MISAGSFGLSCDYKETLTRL
Experimental: as §1

[8] = target: T8, GUCY2C_ECD Peptide 81 (human)
T8 peptide: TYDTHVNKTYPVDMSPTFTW
Experimental: as §1

[9] = target: T9, GUCY2C_ECD Peptide 30 (human)
T9 peptide: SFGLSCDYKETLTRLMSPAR
Experimental: as §1

[10] = target: T10, GUCY2C_ECD Peptide 12 (human)
T10 peptide: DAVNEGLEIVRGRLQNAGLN
Experimental: as §1

[11] = target: T11, GUCY2C_ECD Peptide 36 (human)
T11 peptide: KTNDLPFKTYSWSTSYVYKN
Experimental: as §1

[12] = target: T12, GUCY2C_ECD Peptide 26 (human)
T12 peptide: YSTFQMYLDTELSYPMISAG
Experimental: as §1

[13] = target: T13, GUCY2C_ECD Peptide 53 (human)
T13 peptide: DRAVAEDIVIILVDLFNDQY
Experimental: as §1

[14] = target: T14, GUCY2C_ECD Peptide 7 (human)
T14 peptide: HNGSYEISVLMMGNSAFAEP
Experimental: as §1

[15] = target: T15, GUCY2C_ECD Peptide 77 (human)
T15 peptide: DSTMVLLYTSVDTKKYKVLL
Experimental: as §1

[16] = target: T16, GUCY2C_ECD Peptide 15 (human)
T16 peptide: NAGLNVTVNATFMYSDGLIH
Experimental: as §1

[17] = target: T17, GUCY2C_ECD Peptide 48 (human)
T17 peptide: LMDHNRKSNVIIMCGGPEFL
Experimental: as §1

[18] = target: T18, GUCY2C_ECD Peptide 25 (human)
T18 peptide: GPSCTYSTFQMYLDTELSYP
Experimental: as §1

[19] = target: T19, GUCY2C_ECD Peptide 44 (human)
T19 peptide: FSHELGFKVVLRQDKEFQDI
Experimental: as §1

[20] = target: T20, GUCY2C_ECD Peptide 52 (human)
T20 peptide: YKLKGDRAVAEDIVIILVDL
Experimental: as §1

[21] = target: T21, GUCY2C_ECD Peptide 59 (human)
T21 peptide: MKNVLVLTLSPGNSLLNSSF
Experimental: as §1

B1: GUCY2C-1608 (bispecific antibody)
chain 1: DIQLTQSPSSLSASVGDRVTITCRASESVDYYGSSLLQWYQQKPGKAPKLLIYAASKLASGVPSRFSGSGSGTDFTLTISSLQPEDFATYYCQQTRKAYTFGQGTKLEIKGGGSGGGGEVQLVESGGGLVQPGGSLRLSCAASGFTFSDYYMTWVRQAPGKGLEWVAFIRNQARGYTSDHNPSVKGRFTISRDNAKNSLYLQMNSLRAEDTAVYYCARDRPSYYVLDYWGQGTTVTVSSGCPPCPAPEAAGAPSVFLFPPKPKDTLMISRTPEVTCVVVDVSHEDPEVKFNWYVDGVEVHNAKTKPREEQYNSTYRVVSVLTVLHQDWLNGKEYKCKVSNKALPAPIEKTISKAKGQPREPQVCTLPPSREEMTKNQVSLWCLVKGFYPSDIAVEWESNGQPENNYKTTPPVLDSDGSFFLYSKLTVDKSRWQQGNVFSCSVMHEALHNHYTQKSLSLSPG
chain 2: DIQMTQSPSSLSASVGDRVTITCTSSQSLFNVRSQKNYLAWYQQKPGKAPKLLIYWASTRESGVPSRFSGSGSGTDFTLTISSLQPEDFATYYCKQSYDLFTFGGGTKVEIKGGGGSGGGGEVQLVESGGGLVQPGGSLRLSCAASGFTFSSYWMHWVRQAPGKGLEWIGEIKPSNELTNVHEKFKDRFTISVDKAKNSAYLQMNSLRAEDTAVYYCTRTITTTEGYWFFDVWGQGTLVTVSSGCPPCPAPEAAGAPSVFLFPPKPKDTLMISRTPEVTCVVVDVSHEDPEVKFNWYVDGVEVHNAKTKPREEQYNSTYRVVSVLTVLHQDWLNGKEYKCKVSNKALPAPIEKTISKAKGQPREPQVYTLPPCREEMTKNQVSLSCAVKGFYPSDIAVEWESNGQPENNYKTTPPVLDSDGSFFLVSKLTVDKSRWQQGNVFSCSVMHEALHNHYTQKSLSLSPG
notes: also called GUCY2c CD3 bispecific
DELFIA TRF [1]: 163
DELFIA TRF [2]: 112
DELFIA TRF [3]: 106
DELFIA TRF [4]: 108
DELFIA TRF [5]: 103
DELFIA TRF [6]: 109
DELFIA TRF [7]: 101
DELFIA TRF [8]: 109
DELFIA TRF [9]: 125
DELFIA TRF [10]: 259
DELFIA TRF [11]: 112
DELFIA TRF [12]: 104
DELFIA TRF [13]: 87.8
DELFIA TRF [14]: 136
DELFIA TRF [15]: 98.2
DELFIA TRF [16]: 88.8
DELFIA TRF [17]: 148
DELFIA TRF [18]: 131
DELFIA TRF [19]: 90.5
DELFIA TRF [20]: 104
DELFIA TRF [21]: 135
